The values below come from article PMC3156696 (Developmental cell, 2010).

The target in data set [1] is GMPCPP-stabilized microtubules (unlabelled, polymerized bovine brain tubulin) (bovine, UniProt Q6B856 1-445). Description: co-sedimentation.
Data set [2] deals with soluble αβ-tubulin heterodimer purified from bovine brain (bovine) (UniProt Q6B856).
The target is the same in data set [3]. Description: SEC.
For data set [4] the target is unchanged. Description: AUC.
The data set “AUC” concerns the molecule itself. Description: AUC.

B1: Cls1p^604 (residues 1-604) (domain or fragment, S. pombe, UniProt O42874 1-604, looked up)
chain: MADKDAQDFLKFLKSNASTDEKTRCLDTLRSFFNKNNIPNADLGLFVECFRLALTTVNPLLLRSSVACFETFLRRLRAQYPTWLKFRVPMLKNLVIDHIASRDLQKRVLNILIDLWHFNPSEIEKSLIHLSTTSKSAETRIQCFKWFVLAHNAHLSFDVKSLRPALYINLENANPSVREEAKEVLLLIYKNLSTSAKMQFITDVETTSGLRREILQSLVEELSLISSSSEVIIVQNSASSFQPAPFMTAVATLYPGVELENVKPLLANFSKQLEQDSASMLPAFEGRETEQNWSVRQDSVLRLRQYLRGNACIDYLPELLSVLKTLLPGILLALLSLRTTLSSSAIQLIKEMAIILKSNIDPFLELILPNLLKVCSVTKKLASQAANVTFAAILVNCGVLSRNLSFISLAAHDTNAQLRVFSSNWIFMLISLSPELKNLASLQTNLKAFEKLICRGLADSNSQVREVYRKSFWKLSEYFPSVQEELTNTLEPSVLKQLHLANPNRQAASFNFSGPKRAPIRPLSNLRSFSKSQKEETSSNSSNSSGTRRLGLPQRATPASRERVLPYTRSQAFHSTSLPPSLPSGHSPSIAIPSKRSVSATIKD
B1: in data set [1], the “stoichiometry N” value was ~3 polymerized tubulin dimers per Cls1 molecule.

B2: full-length S. pombe Cls1p (residues 1-1462) (natural protein, UniProt O42874 1-1462, looked up)
chain: MADKDAQDFLKFLKSNASTDEKTRCLDTLRSFFNKNNIPNADLGLFVECFRLALTTVNPLLLRSSVACFETFLRRLRAQYPTWLKFRVPMLKNLVIDHIASRDLQKRVLNILIDLWHFNPSEIEKSLIHLSTTSKSAETRIQCFKWFVLAHNAHLSFDVKSLRPALYINLENANPSVREEAKEVLLLIYKNLSTSAKMQFITDVETTSGLRREILQSLVEELSLISSSSEVIIVQNSASSFQPAPFMTAVATLYPGVELENVKPLLANFSKQLEQDSASMLPAFEGRETEQNWSVRQDSVLRLRQYLRGNACIDYLPELLSVLKTLLPGILLALLSLRTTLSSSAIQLIKEMAIILKSNIDPFLELILPNLLKVCSVTKKLASQAANVTFAAILVNCGVLSRNLSFISLAAHDTNAQLRVFSSNWIFMLISLSPELKNLASLQTNLKAFEKLICRGLADSNSQVREVYRKSFWKLSEYFPSVQEELTNTLEPSVLKQLHLANPNRQAASFNFSGPKRAPIRPLSNLRSFSKSQKEETSSNSSNSSGTRRLGLPQRATPASRERVLPYTRSQAFHSTSLPPSLPSGHSPSIAIPSKRSVSATIKDESKTFELLKNIQRKYELILSGSSVDLPSAEFLSSNLTDALYSGSSICYSLIFSHSLLDLTFQYVDIASLLSQFLLCVYDPSNVGHSFALASFPYVKSHYDAHKYFPIVFDVLMNISNMAPHVKVFPFNTNQKRLIIHGCLLWLKEISDTKLNQLENKPFFVTDKLRYYSSKILAMTAKTKLTSKNWIPLSGLLFSLRAHDTFMFDGLLDRLNEESRTKLVSSWSKQDAFDYSKSSTHQEHLSKNLPTLNTSSSSNSSQTDLLVPHGKGETKETEMQSPIESKEGLLSKDTHIESPQGTSLEKENEEEGKNPVESNCSEESLDDHNIDQTLVNKKETLAQDSESLLQKNNALNEKGFENQFGLSSSAAKVLNKDTLDHVSGPISNSVSSSFKDFTRTPFKEINGERETGFELTSYVNALSKKDDINVQKTENVDESVGLNAMFMDNVNQDSLNSVDQSSGKDKLLLTSSTPNKPTTFFMPANEEILGSPAKDYDIHDQSYSVHELHSENMRENVGQSSLIYNNRDYMNTPMNDFSLSFSEIKGGILESPVESPMTGTISPIDADESVLHDIPAYESLNKSESNKYQEQAYSTPLHHTLNVLPKNKWILSRMHKMENGSPINVDKNLDDAVAALEAAVKELNDGSVNTKTLKFCIKVCKETPSMLYHSHGLLPAILHYIESNNSAMHISDCLILLHEFLVQGYQGVDMHTYHNIICILIEKAEKCKDEPVILAGIEDNITLIAEIADLQGLYEFTQQRLQSLNTETGEKSAPLLLMLLSAILMRLKDLEFLETKDLLRHVVLKYIDHTNPEIRKATFNVCLAVNTIVNNVDETFSILGGLNEGQRLLFMHYLKMKSDEKN
For B2, in data set [2], the MT rescue frequency in TIRF dynamics assay, 6 μM tubulin, Cls1p 20 nM to 140 nM turned out to be 2.15 rescues/min. Also, the stoichiometry N (Cls1p molecules per αβ-tubulin dimer) in data set [3] stood at 2. Also, the “stoichiometry N” value in data set [1] is ~6 polymerized tubulin dimers per Cls1p monomer.

B3: Cls1p-GFP (full-length Cls1p with GFP fused to its C-terminus) (natural protein, S. pombe, UniProt O42874 1-1462, looked up)
chain: B2 chain
Take B3: in data set [4], the stoichiometry N (tubulin dimer per complex) turned out to be 1. Also, the “stoichiometry N” value in “AUC” amounted to 2.
